“And” between values parts separate entries of the source, which are not always exact repeats. Identical values can stand only once.

The target in test [1] is T1, hILT4-His-Avi tag (human, UniProt Q8N423 22-459).
T1 construct: also called monomeric human ILT4; extracellular region of hILT4 linked to a His-Avi tag
Kind of test: SPR Biacore T200, 37 C; antibody captured on protein A/G chip, monomeric hILT4 as analyte; kinetic fit. As for the experimental part:
(§1) The binding kinetics of the parent and germline reversion mutant anti-hILT4 antibodies (in the context of IgG1.3) were measured via Surface Plasmon Resonance (SPR) using a Biacore® T200 instrument. The assay temperature was 37° C. and the running buffer was PBS pH 7.4 supplemented with 0.05% Tween-20. Allanti-hILT4 antibodies were captured on a CM4 chip with pre-immobilized protein A/G (Pierce Thermo Scientific catalog number 21186). […] Monomeric human ILT4 was injected as analyte. […] The hILT4 used in this experiment, comprising the extracellular region of hILT4 linked to a His-Avi tag, consists of the following amino acid sequence: […]

For test [2], the target named is T2, human LILRA3 (human, UniProt Q8N6C8 24-439).
T2 construct: whole, on cells; also called hLILRA3; LIRA3
Briefly: flow cytometry, 293T transfectants, antibody 20 µg/ml; stacked histograms, control: parental cells. How it is done:
(§2) Individual ILT family members were overexpressed in 293T cells. Each transfectant was stained with 20 μg/ml of anti-ILT4 antibodies followed by 1 μg/ml of anti-human IgG secondary mAb. Binding of the antibodies to each transfectant was measured by flow cytometry.

For test [3], the target named is T3, human ILT5 (human, UniProt O75022 24-631).
T3 construct: whole, on cells; also called hILT5; LILRB3
The description is as above. As for the experimental part: as §2

In test [4] the target is T4, human LILRA2 (human, UniProt Q8N149 24-483).
T4 construct: whole, on cells; also called hLILRA2
The description is as above. As for the experimental part:
as §2

Test [5] concerns the target T5, human LILRA6 (human, UniProt Q6PI73 24-481).
T5 construct: whole, on cells; also called hLILRA6
The test is described as above. As for the experimental part:
as §2

The target of test [6] is T6, human ILT3 (human, UniProt Q8NHJ6 22-448).
T6 construct: whole, on cells; also called hILT3
The description is as above. How it is done:
as §2

Test [7] deals with T7, human LILRA4 (human, UniProt P59901 24-499).
T7 construct: whole, on cells; also called hLILRA4
The description is as above. As for the experimental part:
as §2

Test [8] has as its target T8, human ILT2 (human, UniProt Q8NHL6 24-650).
T8 construct: whole, on cells; also called hILT2
Described as above. As for the experimental part: as §2

Test [9] addresses T9, human LILRA1 (human, UniProt O75019 17-489).
T9 construct: whole, on cells; also called hLILRA1; LIRA1
The description is as above. How it is done:
as §2

Test [10] has as its target T10, human LIR8 (human, UniProt O75023 24-590).
T10 construct: whole, on cells; also called hLIR8
The test is described as above. As for the experimental part:
as §2

The target in test [11] is T1, hILT4-His-Avi tag. Kind of test: SPR Biacore T200, 37 C; antibody captured by anti-human Fc on CM4 chip, hILT4-His-Avi as analyte; 1:1 Langmuir fit. How it is done: The running buffer was 10 mM HEPES pH 7.4 supplemented with 0.05% Tween-20 and 1 g/L BSA. All anti-ILT4 antibodies were captured on a CM4 chip with pre-immobilized anti-human Fc capture antibody from Southern Biotech (catalog number 2081-01). […] All data were double-referenced and fitted to a 1:1 Langmuir model with mass transport using Biacore T200 Evaluation Software version 3.1.

For test [12], the target named is T1, hILT4-His-Avi tag. Briefly: SPR ProteOn XPR36, 37 C; antibody amine-coupled to GLC chip, ILT4 ECD-His-Avi as analyte; kinetic titration. As for the experimental part: The antibody was amine-coupled to a GLC sensor chip in a Proteon XPR36 instrument (BioRad). […] All data were double-referenced, exported, and analyzed with BIAevaluation Software 4.1.1 using the kinetic titration model described by Karlsson et al (Karlsson et al. (2005) Analytical Biochem. 349:136). The running buffer consisted of 10 mM HEPES pH 7.4, 150 mM NaCl and 0.05% Tween-20. The assay temperature was 37° C.

The target of test [13] is T11, human ILT4 (hILT4) expressed on cells (human, UniProt Q8N423 22-597).
T11 construct: hILT4 on transfected CHO or 293T cells, or native on human monocytes and macrophages; also called LILRB2
Briefly: flow cytometry on human monocytes of a healthy donor, directly labelled antibody, GMFI; EC50 from the table below the graph; the table has no unit, the concentration axis is in ug/mL. An excerpt:
In FIG. 18B, monocytes selected from a normal healthy donor's peripheral blood were stained with individual anti-ILT4 antibodies conjugated to […].

Test [14] addresses T12, human LILRA5 (human, UniProt A6NI73 42-299).
T12 construct: whole, on cells; also called hLILRA5
Kind of test: antibody titration flow cytometry binding assay on transfected cells, nonlinear regression.

In test [15] the target is T11, human ILT4 (hILT4) expressed on cells. Described as above.
For test [16] the target is unchanged. Kind of test: flow cytometry on hILT4-transfected CHO cells, PE anti-human IgG secondary, GMFI (PE); EC50 from the table below the graph; the table has no unit, the concentration axis is in ug/mL.
Test [17] concerns the target T12, human LILRA5. Briefly: flow cytometry, 293T transfectants, antibody 20 µg/ml; stacked histograms, control: parental cells. How it is done:
as §2

Test [18] has as its target T13, rhILT4-Fc (human, UniProt Q8N423-1 22-461).
T13 construct: also called rhILT4-Fc fusion protein with a murine Fc tail; not shown: murine Fc tail
Kind of test: flow cytometry blocking assay: antibody titrated (12 points) with rhILT4-Fc fixed at 30 µg/ml; rhILT4-Fc bound to HLA-A overexpressing CHO cells read as % Positive; blocked ligand: HLA-A; the IC50 table has no unit, the concentration axis is in ug/mL.

Test [19] has as its target T13, rhILT4-Fc. Briefly: flow cytometry blocking assay: antibody titrated (12 points) with rhILT4-Fc fixed at 30 µg/ml; rhILT4-Fc bound to HLA-B overexpressing CHO cells read as % Positive; blocked ligand: HLA-B; the IC50 table has no unit, the concentration axis is in ug/mL.
Test [20] deals with T11, human ILT4 (hILT4) expressed on cells. Kind of test: flow cytometry cross-blocking on hILT4 CHO cells: unlabelled antibody titrated from 40 µg/mL, then PE-2H2.IgG1.1f at 1.5 µg/mL; competitor: PE-2H2; GMFI (PE) falls from about 310 to about 45; the table calls the value EC50 and has no unit, the concentration axis is in µg/mL. An excerpt:
(§3) After washing, the samples were acquired on a FACSCanto™ cytometer (BD Bioscience, San Jose) and analyzed with Flowjo™ software (Tree Star, Inc, Ashland, Oreg.).

The target in test [21] is T1, hILT4-His-Avi tag. Briefly: SPR Biacore T200, 37 C; antibody captured on protein A/G chip, monomeric hILT4 as analyte; steady state fit. How it is done: as §1
Test [22] addresses T11, human ILT4 (hILT4) expressed on cells. Kind of test: flow cytometry cross-blocking on hILT4 CHO cells: unlabelled antibody titrated from 40 µg/mL, then PE-21D9.IgG1.1f at 1.5 µg/mL; competitor: PE-21D9; GMFI (PE) falls from about 595 to about 60; the table calls the value EC50 and has no unit, the concentration axis is in µg/mL.
Excerpt: as §3

T11 sequence (Q8N423 other isoform, or with tags, fused parts or gaps): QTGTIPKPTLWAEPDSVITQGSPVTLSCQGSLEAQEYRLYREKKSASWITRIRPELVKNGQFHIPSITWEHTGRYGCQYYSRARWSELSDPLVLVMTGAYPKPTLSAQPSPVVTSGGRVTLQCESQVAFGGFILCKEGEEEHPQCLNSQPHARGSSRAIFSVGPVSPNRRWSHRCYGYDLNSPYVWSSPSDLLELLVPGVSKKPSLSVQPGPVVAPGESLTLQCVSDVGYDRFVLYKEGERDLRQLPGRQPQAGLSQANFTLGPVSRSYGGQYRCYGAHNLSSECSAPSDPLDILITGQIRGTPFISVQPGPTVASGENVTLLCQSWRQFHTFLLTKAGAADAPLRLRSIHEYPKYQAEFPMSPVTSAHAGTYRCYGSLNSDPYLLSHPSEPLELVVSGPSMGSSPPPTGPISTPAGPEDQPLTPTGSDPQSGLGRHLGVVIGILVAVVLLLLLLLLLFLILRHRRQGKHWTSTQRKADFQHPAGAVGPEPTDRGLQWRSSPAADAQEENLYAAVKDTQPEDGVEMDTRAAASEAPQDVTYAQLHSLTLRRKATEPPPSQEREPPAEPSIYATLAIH
T1 sequence (Q8N423 other isoform, or with tags, fused parts or gaps): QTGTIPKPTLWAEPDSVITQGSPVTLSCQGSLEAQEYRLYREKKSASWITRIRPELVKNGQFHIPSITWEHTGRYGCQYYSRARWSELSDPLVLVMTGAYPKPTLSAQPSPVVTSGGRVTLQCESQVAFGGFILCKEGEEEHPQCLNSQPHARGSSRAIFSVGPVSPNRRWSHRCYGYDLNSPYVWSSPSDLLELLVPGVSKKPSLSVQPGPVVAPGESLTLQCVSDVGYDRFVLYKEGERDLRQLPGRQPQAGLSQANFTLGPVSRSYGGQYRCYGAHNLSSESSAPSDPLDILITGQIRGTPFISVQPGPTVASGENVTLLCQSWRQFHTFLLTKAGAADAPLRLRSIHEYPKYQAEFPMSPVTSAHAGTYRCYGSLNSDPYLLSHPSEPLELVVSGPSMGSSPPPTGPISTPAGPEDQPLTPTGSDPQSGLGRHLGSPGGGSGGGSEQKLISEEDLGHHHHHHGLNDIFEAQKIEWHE
T4 sequence (Q8N149 24-483): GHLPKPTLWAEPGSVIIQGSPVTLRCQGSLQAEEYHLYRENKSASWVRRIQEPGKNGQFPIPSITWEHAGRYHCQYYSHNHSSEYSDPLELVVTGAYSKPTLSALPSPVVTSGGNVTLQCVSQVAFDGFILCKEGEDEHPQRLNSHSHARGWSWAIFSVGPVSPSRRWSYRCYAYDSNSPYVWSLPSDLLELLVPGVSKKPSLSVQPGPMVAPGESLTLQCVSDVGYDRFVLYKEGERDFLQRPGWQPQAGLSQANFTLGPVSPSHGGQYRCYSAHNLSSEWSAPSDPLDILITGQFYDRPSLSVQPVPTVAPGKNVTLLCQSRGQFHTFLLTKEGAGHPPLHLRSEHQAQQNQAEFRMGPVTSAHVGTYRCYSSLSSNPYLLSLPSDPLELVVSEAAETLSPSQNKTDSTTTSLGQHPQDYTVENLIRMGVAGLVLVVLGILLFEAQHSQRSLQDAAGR
T5 sequence (Q6PI73 24-481): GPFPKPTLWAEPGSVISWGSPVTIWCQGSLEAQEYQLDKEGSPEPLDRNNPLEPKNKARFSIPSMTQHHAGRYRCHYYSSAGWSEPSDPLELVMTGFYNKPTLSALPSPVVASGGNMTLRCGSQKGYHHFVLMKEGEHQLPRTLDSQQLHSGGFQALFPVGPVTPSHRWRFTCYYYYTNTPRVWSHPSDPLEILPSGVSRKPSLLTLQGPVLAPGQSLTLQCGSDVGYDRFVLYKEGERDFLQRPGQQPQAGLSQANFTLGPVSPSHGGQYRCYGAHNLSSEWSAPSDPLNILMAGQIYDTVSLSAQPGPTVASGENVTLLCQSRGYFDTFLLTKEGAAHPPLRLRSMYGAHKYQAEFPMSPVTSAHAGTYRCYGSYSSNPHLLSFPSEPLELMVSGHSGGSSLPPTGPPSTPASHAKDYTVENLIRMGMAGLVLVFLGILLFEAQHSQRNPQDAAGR
T9 sequence (O75019 17-489): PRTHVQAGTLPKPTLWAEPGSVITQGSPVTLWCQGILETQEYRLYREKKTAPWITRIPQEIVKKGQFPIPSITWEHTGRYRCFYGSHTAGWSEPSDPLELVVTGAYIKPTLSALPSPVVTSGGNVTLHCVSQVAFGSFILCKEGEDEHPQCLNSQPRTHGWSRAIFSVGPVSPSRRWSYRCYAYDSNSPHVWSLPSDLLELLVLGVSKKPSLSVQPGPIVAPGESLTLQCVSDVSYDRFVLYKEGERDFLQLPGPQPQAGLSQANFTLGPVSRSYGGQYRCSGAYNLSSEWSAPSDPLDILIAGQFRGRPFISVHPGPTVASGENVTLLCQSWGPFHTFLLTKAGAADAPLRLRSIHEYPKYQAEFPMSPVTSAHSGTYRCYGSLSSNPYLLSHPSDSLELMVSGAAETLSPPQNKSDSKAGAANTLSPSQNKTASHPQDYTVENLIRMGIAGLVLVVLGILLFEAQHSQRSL
T7 sequence (P59901 24-499): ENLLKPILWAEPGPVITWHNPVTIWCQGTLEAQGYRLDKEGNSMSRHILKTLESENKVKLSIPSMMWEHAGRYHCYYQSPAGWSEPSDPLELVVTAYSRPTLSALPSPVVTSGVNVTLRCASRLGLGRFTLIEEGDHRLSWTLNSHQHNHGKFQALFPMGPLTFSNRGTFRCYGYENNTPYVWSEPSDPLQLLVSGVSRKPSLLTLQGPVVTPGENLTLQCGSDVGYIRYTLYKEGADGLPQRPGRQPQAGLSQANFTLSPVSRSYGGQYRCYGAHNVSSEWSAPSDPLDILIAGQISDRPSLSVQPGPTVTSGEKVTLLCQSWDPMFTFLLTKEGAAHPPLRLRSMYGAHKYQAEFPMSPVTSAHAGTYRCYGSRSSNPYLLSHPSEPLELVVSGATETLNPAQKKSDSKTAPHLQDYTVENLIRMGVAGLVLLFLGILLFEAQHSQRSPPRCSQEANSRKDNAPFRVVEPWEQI
T12 sequence (A6NI73 42-299): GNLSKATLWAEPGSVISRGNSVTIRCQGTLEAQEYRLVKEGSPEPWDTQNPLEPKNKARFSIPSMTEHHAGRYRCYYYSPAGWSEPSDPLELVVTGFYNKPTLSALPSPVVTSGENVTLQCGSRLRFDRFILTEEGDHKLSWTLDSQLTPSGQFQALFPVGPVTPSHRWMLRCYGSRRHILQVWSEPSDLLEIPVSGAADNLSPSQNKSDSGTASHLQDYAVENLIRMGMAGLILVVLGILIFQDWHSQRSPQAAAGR
T8 sequence (Q8NHL6 24-650): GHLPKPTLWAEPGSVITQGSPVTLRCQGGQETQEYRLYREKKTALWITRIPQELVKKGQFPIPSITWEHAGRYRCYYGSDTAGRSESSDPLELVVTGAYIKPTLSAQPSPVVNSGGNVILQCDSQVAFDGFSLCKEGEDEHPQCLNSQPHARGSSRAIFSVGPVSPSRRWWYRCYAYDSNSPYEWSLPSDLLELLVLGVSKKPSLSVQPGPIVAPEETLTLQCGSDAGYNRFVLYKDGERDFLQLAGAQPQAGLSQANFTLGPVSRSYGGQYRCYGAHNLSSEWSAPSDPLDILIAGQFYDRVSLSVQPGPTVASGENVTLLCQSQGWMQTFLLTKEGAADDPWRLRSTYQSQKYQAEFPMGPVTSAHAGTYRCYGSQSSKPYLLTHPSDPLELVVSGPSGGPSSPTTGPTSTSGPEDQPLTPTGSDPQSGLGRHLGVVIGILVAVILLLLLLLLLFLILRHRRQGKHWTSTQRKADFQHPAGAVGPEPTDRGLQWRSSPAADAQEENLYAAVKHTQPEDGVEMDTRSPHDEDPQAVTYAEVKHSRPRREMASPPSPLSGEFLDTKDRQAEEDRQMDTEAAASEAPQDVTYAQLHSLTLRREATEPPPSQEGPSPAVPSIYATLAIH
T10 sequence (O75023 24-590): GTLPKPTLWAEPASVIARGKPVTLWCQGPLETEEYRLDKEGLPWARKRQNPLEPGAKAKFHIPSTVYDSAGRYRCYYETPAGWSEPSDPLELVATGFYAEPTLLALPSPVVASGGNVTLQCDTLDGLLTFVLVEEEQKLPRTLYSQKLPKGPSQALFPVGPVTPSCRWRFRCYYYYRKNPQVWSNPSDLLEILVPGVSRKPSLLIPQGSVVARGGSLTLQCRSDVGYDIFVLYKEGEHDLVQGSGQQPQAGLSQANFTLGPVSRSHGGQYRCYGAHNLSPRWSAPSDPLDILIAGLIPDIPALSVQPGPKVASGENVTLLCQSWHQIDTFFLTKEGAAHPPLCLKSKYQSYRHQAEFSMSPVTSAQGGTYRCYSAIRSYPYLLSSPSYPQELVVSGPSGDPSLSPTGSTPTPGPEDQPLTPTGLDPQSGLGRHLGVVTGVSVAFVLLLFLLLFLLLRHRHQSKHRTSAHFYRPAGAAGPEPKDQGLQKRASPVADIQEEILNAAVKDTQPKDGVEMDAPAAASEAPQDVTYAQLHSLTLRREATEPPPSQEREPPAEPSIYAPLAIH
T2 sequence (Q8N6C8 24-439): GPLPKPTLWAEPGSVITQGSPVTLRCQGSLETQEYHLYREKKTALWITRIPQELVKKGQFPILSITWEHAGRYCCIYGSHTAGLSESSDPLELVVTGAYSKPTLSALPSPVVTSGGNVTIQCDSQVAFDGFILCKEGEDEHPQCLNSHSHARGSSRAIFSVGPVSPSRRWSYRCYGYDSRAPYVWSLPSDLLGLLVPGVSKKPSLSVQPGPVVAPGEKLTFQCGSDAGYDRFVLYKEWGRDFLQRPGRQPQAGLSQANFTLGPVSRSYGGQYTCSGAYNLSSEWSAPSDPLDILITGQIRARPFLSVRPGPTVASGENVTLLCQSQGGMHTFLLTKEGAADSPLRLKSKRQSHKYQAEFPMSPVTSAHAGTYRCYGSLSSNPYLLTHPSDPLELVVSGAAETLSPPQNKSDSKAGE

B1: 21D9.e.IgG1.3 (antibody, V domains shown)
VH: EVQLLESGGGLVQPGGSLRLSCAASGFTFSNYAMNWVRQAPGKGLEWVSVISVSGGSTYYADSVKGRFTISRDNSKNTLYLQMNSLRAEDTAVYYCAKDYYYDSGSYYDSFFDYWGQGTLVTVSS
VL: not shown
notes: Germline reversion mutant of 21D9 with all four VH reversions; light chain of 21D9; IgG1.3; also called ILT4.8.IgG1.3; ILT4.8
As for B1, the Kd is 0.39 nM in test [1], 0.58 nM in [11] and 0.33 nM in [12]. Further, the app. act. in test [1] was 93%; in test [11], 94%. Besides, the binding result in test [2], in test [3], in [4], in test [5], in [6] and in [7] was “no binding (tested: 20 µg/ml)” in each case. Moreover, the binding result in test [8], in test [9] and in [10] was “no binding (tested: 20 µg/ml)” each time. Also, the EC50 is 0.0341 µg/mL in [13], roughly 313 µg/mL in test [14], 0.039 µg/mL in [15] and 0.00416 µg/mL in [16].

B2: 10F10.IgG1.3 (antibody, V domains shown)
VH: QVQLVESGGGVVQPGRSLRLSCAASGFTFSSYAMHWVRQAPGKGLEWVAIISYDEYNKYYADSVKGRFTISRDNSKNTLYLQMNSLRAEDTAVYYCAREWVGIRYWGQGTLVTVSS
VL: AIQLTQSPSSLSASVGDRVTITCRASQGISSALAWFQQKPGKAPKLLIYDASSLESGVPSRFTGSGSGTDFTLTISSLQPEDFATYYCQQFNSYPITFGQGTRLEIKR
notes: Fully human antibody, IgG1.3 heavy chain constant region (L234A, L235E, G237A), kappa light chain; also called 10F10 WT; ILT4.10.IgG1.3
Turning to B2, the Kd is 14 nM and 15 nM in test [1]; 22 nM in [11]; 19 nM and 18 nM in test [21]. For the same molecule, the koff in test [1] is 0.023 s⁻¹ and 0.02 s⁻¹; in test [11] it was 0.026 s⁻¹. The kon in test [1] was 1.6e+06 M⁻¹ s⁻¹ and 1.3e+06 M⁻¹ s⁻¹; in test [11], 1.2e+06 M⁻¹ s⁻¹. The binding result in [2], in test [3], in test [4], in test [17], in test [5] and in test [6] was “no binding (tested: 20 µg/ml)” each time. Besides, the binding result in test [7], in test [8], in [9] and in test [10] was “no binding (tested: 20 µg/ml)” each time. The molecule further came in with an app. act. in test [11] of 100%. Besides, the IC50 in test [18] came to 3.6 µg/mL; in test [19] it was 1.55 µg/mL. In addition, the EC50 in [20] turned out to be 0.0279 µg/mL; in test [13] it was 0.131 µg/mL; in [16] it was 0.015 µg/mL; in test [22] it was 0.0492 µg/mL.

Source of the values: patent publication US20200079848A1 (Five Prime, published 2020).
